The labels stand for the following.
B1: TPR t1 (parent)
chain: GACCAAUCUGCCCUCAGAGCUCGAGAACAUCUUCGGAUGCAGAGGAGGCAGGCUUCGGUGGCGCGAUAGCGCCAACGUCCUCAACCUCCAAUGCAUCCCACCACAUGAUGAUGCCUGAAGAGCCUUGGUUUUUUG

This note sets out measurements from the RNAGym collection of RNA variant scans (doi:10.1073/pnas.2313332121).

The series covers variants of B1. Briefly: polymerase ribozyme fitness, log enrichment relative to wild type (log ratio); higher = more active; in vitro selection for triplet polymerase activity. The essentials:
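To select mutant libraries of each subunit of a heterodimeric triplet polymerase ribozyme, built by PCR and transcribed, each was annealed with a biotinylated primer, partner subunit and triplets, then incubated frozen at −7 °C. Extended constructs were gel-excised, captured on streptavidin beads and amplified by RT-PCR, in one round carried out in triplicate. Illumina sequencing of input and output libraries kept genotypes with ≥10 input reads and ≥1 read per output. Fitness is the base-2 logarithm of genotype enrichment relative to wild-type enrichment, from inverse-variance-weighted replicate averages.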
Regarding A5C G51A C62U U78G, the “polymerase ribozyme fitness (log ratio)” value was -3.87.

On to A6C C12U A46G A118G, for which the “polymerase ribozyme fitness (log ratio)” value was 0.142.

For A6G C62U U129C, the “polymerase ribozyme fitness (log ratio)” value was -0.185.

In the case of A5C C20A A43C G44C G71A C97U U106A C115A, the “polymerase ribozyme fitness (log ratio)” value is -6.63. With A6C A18C G60U C82G G127U the figure was -5.44. Take A5C G45A A83C U87G G120A U131A: the “polymerase ribozyme fitness (log ratio)” value was -0.712. In the case of A5C U9G, the “polymerase ribozyme fitness (log ratio)” value was found to be 0.0336.

Take A5G G57A G69C: the “polymerase ribozyme fitness (log ratio)” value was -1.65. With A6G A18U the figure was -1.31. With A5G C12A U59C the figure was 0.0118. With A5U C62G the figure was -1.69; with A6C C13A A37U C82U, -2.7. In the case of A5C G23U G71C U112C U126A U131A, the “polymerase ribozyme fitness (log ratio)” value was -4.82. With A5U C13G C72A C73U U106C the figure was -3.49; with A5C C12U G48A, -0.983. A5U G44A A46U C56U U126G U133A: the “polymerase ribozyme fitness (log ratio)” value was -2.99.

As for A5C G44A A111U, the “polymerase ribozyme fitness (log ratio)” value is -5.64.

As for A5U C70U C89U G110U, the “polymerase ribozyme fitness (log ratio)” value is -2.97. Take A5C U81A: the “polymerase ribozyme fitness (log ratio)” value was -1.65. To A6G C34A belongs -2.05.

Take A5C G45U C62U: the “polymerase ribozyme fitness (log ratio)” value is -1.97. Turning to C4U G71U, the “polymerase ribozyme fitness (log ratio)” value is -0.506. With A5C C28U G57C the figure was -3.47; with A5U C85A C88U A100U A111G, -2.1; with C4U U59A, -0.304. Take A5G A29C: the “polymerase ribozyme fitness (log ratio)” value was -1.82. With A5G C8G G47A G69U C80G the figure was -3.96; with A5G G36U A46U G60U A91G U106A, -4.94. With A5U G17C G23A C115G U131C the figure was -5.42; with A5U C13G C49A G63U U81G A121C, -3.63. For the variant A5C A6U G69U A121G, the “polymerase ribozyme fitness (log ratio)” value worked out at 2.34. Regarding A5U G17C A18U C20U A46C U59A A121G G127C, the “polymerase ribozyme fitness (log ratio)” value is -5.48.

As to A6G C8A U55A, the “polymerase ribozyme fitness (log ratio)” value came out at 0.109. With C4U C97A the figure was -5.21; with A5G C11G A16G G63U A74C G77U A95C G117U, -2.32; with A5U G10A C15A C70U C79A C94U C99U C124U, -7.66. To A6C G36A A66G C72G C76U U78A belongs -4.1; to A5C C15G G61A C114U, -6.53. For A5G C11G C28U U59G A118G G127U G135U, the “polymerase ribozyme fitness (log ratio)” value was -2.91. With A5U A29U G71A U78G C123A G128U the figure was -4.18; with A5U A6G G69U C86A C102A, -2.02; with A5U G10A C11A C72G G110A, -1.86.

For C4U G10C C20A G48U A119G, the “polymerase ribozyme fitness (log ratio)” value was -3.45. For A5C A18G, the “polymerase ribozyme fitness (log ratio)” value was -4.19. With A6C C85U C101U G110U the figure was -3.01; with A5U G10A A41G G61A C101U U133G, -0.742; with C4U U9G A24U G57C G58U A84G C85A C114G C123G, -7.47.

Take A6C U131A: the “polymerase ribozyme fitness (log ratio)” value is -0.317. To A5C A26U belongs -5; to A5U C102U G122A, -3.47; to A5U C70U, -0.781. With A6G C11G G57U the figure was 0.178; with A6G C62A, -0.491. As to C4U G51U A121C, the “polymerase ribozyme fitness (log ratio)” value is -1.96.

As to A5C C28U U59C C123U, the “polymerase ribozyme fitness (log ratio)” value is -3.1.

For the variant A5C G45U C73G U81C G120A G122U, the “polymerase ribozyme fitness (log ratio)” value is -3.02. Take A6C C53G: the “polymerase ribozyme fitness (log ratio)” value is -0.863. For the variant A6C U9G, the “polymerase ribozyme fitness (log ratio)” value is -0.665.

On to A6C C73G, for which the “polymerase ribozyme fitness (log ratio)” value is -0.957. A5U C11G A29G G63A U87G: the “polymerase ribozyme fitness (log ratio)” value is -1.98. With A5C C49U C53A the figure was -1.24.

Consider A6C G57A C62G G120C, for which the “polymerase ribozyme fitness (log ratio)” value was -4.68. To A5G G51A A84C C89U U106A U112C belongs -2.68; to A6C C8G C72A, 0.431; to A6C C22U C62U C79U C99U, -5.96. With A5G C12U G113U U125C the figure was -2.74; with A6G A18G U129A U133A G135U, -5.44. On to A5G U133A, for which the “polymerase ribozyme fitness (log ratio)” value is -0.954. With A5G U54C G69C A118G U129A the figure was -2.84. To C4U U54A C62G G93C G120U U130C belongs -5.69; to A6C C12A U54G, -1.08; to A5U U130G, -0.49.

A5U U9A: the “polymerase ribozyme fitness (log ratio)” value was -0.246. To A6C U54G C62U U92G belongs -4.44; to A6C G10A U30C G71A, -5.5; to A6G A41U C70U C124A, -0.611. To A6C G93C A121G G127C belongs 0.208; to A6C G52A U81C A121C C123A, -0.955. With A5U U7A C15A G44A C56A G60A the figure was -3.35.

On to A5G A83C U126A, for which the “polymerase ribozyme fitness (log ratio)” value was -1.99. In the case of A6C U7G C22G G58U A95G C104A G120C, the “polymerase ribozyme fitness (log ratio)” value was -3.33. With A6G C56A G69U C104U the figure was -0.478; with A5C G63C C114U, -2.9.

In the case of A6C C76G U81C C85U C99U, the “polymerase ribozyme fitness (log ratio)” value was -5.11. Consider A6C G17U U96G C98U C123U, for which the “polymerase ribozyme fitness (log ratio)” value is -6.92. In the case of A5U G19A A41U C94A C104U, the “polymerase ribozyme fitness (log ratio)” value was -3.89.

For C4U C70U C80A, the “polymerase ribozyme fitness (log ratio)” value is -5.32. With A5U C115U the figure was -1.6. On to A5C C72U C82G U87A C123G, for which the “polymerase ribozyme fitness (log ratio)” value is -3.15. Take A5G C11U G48U G69A U131C: the “polymerase ribozyme fitness (log ratio)” value was -3.72.

As for A5G U54C G69U A118G U129A, the “polymerase ribozyme fitness (log ratio)” value was -1.19. Take A5G G10U C72G C86U C97U C114A: the “polymerase ribozyme fitness (log ratio)” value is -3.98. To A5U U54G belongs -0.237; to A5C G51A C86G, -4.05. With A5C G35A A41U U112A the figure was -5.8; with A5U C13U U78G C82A C104U U109C, -6.49; with A5U C80G, -5.2.

In the case of A6C G44A G61U, the “polymerase ribozyme fitness (log ratio)” value is -0.646.

On to A5G C101A C115A, for which the “polymerase ribozyme fitness (log ratio)” value is -0.823.

Regarding A6C C8G U92G A121C C123G, the “polymerase ribozyme fitness (log ratio)” value was 0.289.

Take A6C C82U: the “polymerase ribozyme fitness (log ratio)” value was -0.547.

Regarding A5C C12U, the “polymerase ribozyme fitness (log ratio)” value was determined as 0.118. To A5U G19A G69U C72G U112G belongs -3.83; to A5U G19A C40A A111G, -2.76; to A5U G35U, -5.72. To A5U G35C belongs -4.38; to A5U G57A G63U U78C A95C C115A, -3.19.

For the variant A6C G10C G36U, the “polymerase ribozyme fitness (log ratio)” value is -2.24. For the variant A5C C49G C53A U54G C98U U106A G128U, the “polymerase ribozyme fitness (log ratio)” value is -2.13. With A5C G71U C82A C101G the figure was -2.98. As to A6C C70U U129A, the “polymerase ribozyme fitness (log ratio)” value is -2.82. With A5U C13G A75C C76A the figure was -1.8; with A6C A50C U59C C72U U92G, -4.39; with A6C G35U A83U C98G A121U, -4.12.

Consider A5C A18G G63C C88A C101A G120U, for which the “polymerase ribozyme fitness (log ratio)” value is -4.57.

In the case of A6C C11G G36U C40G U106A U130A, the “polymerase ribozyme fitness (log ratio)” value was -4.89. With A6C A100U the figure was -0.814.

Turning to A5C A18C C123A U130A, the “polymerase ribozyme fitness (log ratio)” value is -1.87. With A5U G60C U96A C101A A119U the figure was -2.53. Turning to A6C A41C C94A U129G, the “polymerase ribozyme fitness (log ratio)” value was -4.39.

Consider C4U G71A G77U, for which the “polymerase ribozyme fitness (log ratio)” value is -1.79. To A6G C11G G17C G36C C97U belongs -5.22; to A5C G17U G120A, -3.4; to A5U C20G A121C C123U, -3.97. As to C4U U59A C62A A100C U106A C124G, the “polymerase ribozyme fitness (log ratio)” value is -0.734. With A6G C13U C102U G122A the figure was -2.62; with C4U U78C, -0.902. As to A5U C11G A16U G60U A103C, the “polymerase ribozyme fitness (log ratio)” value is -5.34. With A6C G10A C15A G25A A43U G45C C86G U106G G113U the figure was -7.45; with A5U C22A U112A, -2.64.

For the variant A5C A37U G39C C86A C124G, the “polymerase ribozyme fitness (log ratio)” value is -3.87. To A6G C8A U9G belongs 0.0967. For A5U C97G C115U G127A, the “polymerase ribozyme fitness (log ratio)” value is -6.94.

Consider A5G U38G G48C G69U C79A, for which the “polymerase ribozyme fitness (log ratio)” value is -2.33. With A5U C20A C40A G113C C115U the figure was -4.07; with A6C A26G U38G C53G, -5.37. With A5G C15A G61A the figure was -0.776.

On to A6G C76A C79A G120C, for which the “polymerase ribozyme fitness (log ratio)” value was 0.0381. To C4U G63U C124G belongs 0.825; to A5U C49G G51A A74U C82A, -4.76.

Turning to A6G A50C C70G, the “polymerase ribozyme fitness (log ratio)” value was -3. With A5U C104U U112A G120U the figure was -0.575. Take C4U G135U: the “polymerase ribozyme fitness (log ratio)” value was -1.43. As for C4U G44C C64U A119U U133A, the “polymerase ribozyme fitness (log ratio)” value is -2.68. For the variant A6G C13U C22U G44C, the “polymerase ribozyme fitness (log ratio)” value was -5.6. With A5C U112G U130C the figure was -0.277. In the case of A5U C13G C40U U55A U59A C82G, the “polymerase ribozyme fitness (log ratio)” value was -2.63. To A6C C11U C49A C101A belongs -2.17; to C4U C49U G52A, -3.12; to A5U G127U, -2.48. In the case of A6G C101A C115G, the “polymerase ribozyme fitness (log ratio)” value was -1.96. As for A5U A6G C86A C102A, the “polymerase ribozyme fitness (log ratio)” value was -3.72. With A5G G47U C62A G71C the figure was -1.95; with A6C C11A, -2.65; with A6C C53U A74G C80U A118G, -1.6. With A5U U38G A74G the figure was -1.15. A5C C79U C104A: the “polymerase ribozyme fitness (log ratio)” value is -2.03. For A5C G60C, the “polymerase ribozyme fitness (log ratio)” value is -0.361. Regarding A5C C13U A83G, the “polymerase ribozyme fitness (log ratio)” value was -1.43. For A5C C62U, the “polymerase ribozyme fitness (log ratio)” value was -0.355. In the case of A5G G47U, the “polymerase ribozyme fitness (log ratio)” value is -1.19. On to A5C U7C G17U C86G, for which the “polymerase ribozyme fitness (log ratio)” value was -3.53.

Turning to A6C U38A A43U, the “polymerase ribozyme fitness (log ratio)” value is -3.16.

With A5G A103C C104A, the “polymerase ribozyme fitness (log ratio)” value is -3.08. With A5G C15U C72A C101U C124U the figure was 0.428; with A5C G63A G69U C101U, -1.54. In the case of A5U A6C G63U, the “polymerase ribozyme fitness (log ratio)” value was -1.11.
